The target in data set [1] is T1, Rex-His6 (Streptomyces avermitilis ATCC31267) (UniProt Q82E78).
T1 sequence: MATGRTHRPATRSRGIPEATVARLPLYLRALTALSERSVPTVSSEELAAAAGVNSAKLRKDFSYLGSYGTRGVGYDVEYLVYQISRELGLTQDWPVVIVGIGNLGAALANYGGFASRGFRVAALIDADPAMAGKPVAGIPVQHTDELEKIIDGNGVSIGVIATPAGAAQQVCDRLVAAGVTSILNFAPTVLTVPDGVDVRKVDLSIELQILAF
As to the kind of experiment: EMSA. To be noted: EMSA: DIG Gel Shift Kit (Roche) binding buffer, 1 ug poly[d(I-C)] in 20 ul, 30 min at 25 C, 5% native PAGE in 0.5x TBE; footprinting: 400 ng DNA in 25 ul …. In general terms: Mobility shift assays separate free from complexed probe on a gel.

For data set [2], the target named is T1, Rex-His6 (Streptomyces avermitilis ATCC31267). As to the kind of experiment: DNase I footprinting. Particulars: EMSA: DIG Gel Shift Kit (Roche) binding buffer, 1 ug poly[d(I-C)] in 20 ul, 30 min at 25 C, 5% native PAGE in 0.5x TBE; footprinting: 400 ng DNA in 25 ul ….

Regarding “CAGTTGCCACGGTGCTCCTGCGGGTAGCGCGGGGCTGCAGGCGGTCACACGTACCTAGACCGCCCCGTCGAAAGCAGGCTATGTCTTTGTGAACGCGTGCACAAAGATAGTGTCCGATTTGCCCGGCCAACGTGACCGGGGTCACGCGCCCCCGGCGTATGCGTATGGAACCGGCACACAGGCGCCTTCGTTCCTCACTCGACGGGGGCAAAACCGCACACACTCCTCAACGATCCACGCCCCCCGAGACCAAACCGCCCCCGATCCTAAGCGACTTTCCGGGCTGTTTGGACTACTC (double strand) [rex promoter probe]”, the binding entry in data set [1] and in data set [2] was “binds” throughout. Turning to “GAGTCTCTACGTGGCGATCGAGACGGCCCGCAACACCGGCCTCCACAGAGAGCCAGAACCCCTCCTCAATCCAAAGGACCACGTCAGTCCGTCTGACGATCGGCCCTTCACTTGTTGAGGGATTCGTGAAAGCGTTCACATTCACAAGCAACCTGAATGTAATACCAAGGAGAGGTAGCAGCCATGGA (double strand) [wblE promoter EMSA probe]”, the binding entry in data set [1] is recorded as “binds”.

In the case of “GCTTCATGATCCTTCGCCAGGTGGCAGAGATCACAAACTCCTTACTTACCCCCGTGTCGCAGATCACAGACCGCCGGGCATAGGATGCGCAGCAGTTGGGCTTGTGACCTGCTTCACATGTACGCGATCTTCGTCGGGACGCACGGGGTTCGTGGGACGTGTGAGGCGGGAGTGCTCGCCCGACGCAACCTCCCCCAAGGTCTCGGCTCCGCTCGACCAGGGGGACCCCCATGCAGTCAGTGCCGACTGAGAGGAGCGAGGAGCGTGAA (double strand) [nuoA1 promoter EMSA probe]”, the binding entry in data set [1] is recorded as “binds”.
